According to patent publication US20220174981A1, “PROLINE TOLERANT TRIPEPTIDYL PEPTIDASES AND USES THEREOF” (DuPont Nutrition Biosciences APS, priority 2014, published 2022):
Peptide text beside a SMILES is read from it.

Key:
Type in all cases: biochemical
[1] = molecular target: T1, T. reesei proline tolerant tripeptidyl peptidase TRI083 (SEQ ID No. 1, SEQ ID No. 2 or SEQ ID No. 29) (Trichoderma reesei, UniProt G0RXE9); assay: Product inhibition of proline tolerant tripeptidyl peptidase TRI083 with H-Ala-Ala-Ala-pNA as substrate; conditions: competitive inhibitor fit; substrate Ala-Ala-Ala-pNA (0-2000 nM); McIlvaine buffer pH 4.0, 50° C.; tripeptide at 3.6 mM, dipeptide at 18 mM
T1 sequence (G0RXE9 198-612): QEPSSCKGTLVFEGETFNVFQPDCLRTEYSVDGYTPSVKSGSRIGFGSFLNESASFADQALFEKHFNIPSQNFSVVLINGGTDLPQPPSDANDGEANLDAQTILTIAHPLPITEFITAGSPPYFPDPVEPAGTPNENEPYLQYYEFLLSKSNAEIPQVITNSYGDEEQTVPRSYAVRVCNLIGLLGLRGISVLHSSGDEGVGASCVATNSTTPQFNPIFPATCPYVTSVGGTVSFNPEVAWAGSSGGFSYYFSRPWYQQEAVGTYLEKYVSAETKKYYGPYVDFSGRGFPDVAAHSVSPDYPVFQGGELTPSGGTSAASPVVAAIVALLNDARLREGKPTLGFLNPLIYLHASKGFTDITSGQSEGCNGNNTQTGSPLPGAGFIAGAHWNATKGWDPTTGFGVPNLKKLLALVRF
Procedure: For proline tolerant tripeptidyl peptidase the chromogenic peptide H-Ala-Ala-Ala-pNA was used. The assay was conducted as follows, 27.5 μL of appropriately diluted enzyme was added to 200 μl McIlvaine buffer (20 mM, pH 4.0). After incubation at 50° C. for 5 min, 12.5 μL of the chromogenic peptide solution (5 mg/mL dissolved in dimethyl sulfoxide (DMSO); Sigma-Aldrich, Denmark) were added to the reaction mixture. The reaction was terminated by adding 50 μL of 0.5 M trichloroacetic acid (TCA; Sigma-Aldrich, Denmark). After centrifugation (15,000×g, 5 min), 240 μL of the solution were transferred to a microtiter plate (MTP; Kisker-biotech, Germany) and the absorption was measured in an MTP reader (Molecular Devices, Denmark) at 405 nm. One katal of proteolytic activity was defined as the amount of enzyme required to release 1 mol of p-nitroaniline per second. […]
The inhibition experiments were set up as described in Example 14. […] The degree of pre-hydrolysis of H-Ala-Ala-Ala-OH was determined by gas chromatography (Husek, 1991; FEBS-Letters 280, 354-356). About 0.18 mg/mL alanine was measured, which corresponds to about 54% hydrolyses of the initially applied H-Ala-Ala-Ala-OH.
Subsequently, TRI083 was analyzed for product inhibition without inhibitor, with 1 mg/mL H-Ala-Ala-Ala-OH as well with the PepN pre-hydrolyzed H-Ala-Ala-Ala-OH (1 mg/mL).

[2] = tested on: whey protein (WPI, Lacprodan-9224); assay: Hydrolysis of 20% whey protein (WPI) with Alphalase FP2 and TRI083, OPA degree of hydrolysis; conditions: FP2 0.0%
Procedure: For whey protein hydrolysis, Lacprodan-9224 (Arla Food Ingredients, Denmark) was employed. A 20% (w/w) WPI suspension was prepared in H2Od and adjusted to pH 4.0 with acetic acid (Sigma-Aldrich, Denmark). To prevent microbial growth, 0.0285% (w/w) NaN3 was added. A volume of 200 μl of the WPI suspension was transferred into each of the 96 wells of a microtiter plate (MTP; VWR, Denmark). Subsequently, 5 μl of each consecutively diluted peptidase, Alphalase® FP2 and proline tolerant tripeptidyl peptidase (3PP=TRI083; 0-8750 nkat H-Ala-Ala-Ala-pNA/mL activity in stock solution added), were added to each well, resulting in dosages as shown in Table 1. The MTP was sealed and placed in an EMS incubator/shaker (Thermo Scientific, Denmark) at 40° C. After 24 h of incubation and shaking at 400 rpm, the hydrolyses were stopped by addition of 20 μl of 2 M trichloroacetic acid (TCA; Sigma-Aldrich, Denmark). As a reference, a plain 20% WPI (w/w) suspension was used which was treated in the same manner as the WPI hydrolyses. Unhydrolysed, precipitated WPI was removed by filtration (0.22 μm). On the filtered WPI hydrolysate o-phthaldehyde (OPA) derivatization was conducted according to Nielsen et al. (2001) with minor modifications. A sample volume of 25 μl was transferred to a well and 175 μl of OPA-reagent, dissolved in phosphate buffer pH 11, was added subsequently. The measured absorptions at 340 nm in an MTP reader (Molecular Devices, Denmark) were transformed into the relative degree of hydrolysis (DH) in per cent.
A 20% (w/w) WPI suspension hydrolysed in 6 M HCl (Sigma-Aldrich, Denmark) at 100° C. for 24 h served as reference (100% DH).

sodium caseinate = assay: 5% sodium caseinate hydrolysis with endopeptidase, TRI083 and PepN, serine equivalents; conditions: 17,500 nkat/mL TRI083
H-Ala-Ala-Ala-pNA = assay: Exopeptidase Broad-Specificity Assay (EBSA) with H-Ala-Ala-Ala-pNA; pH and temperature profile
Procedure: 10 μL of the chromogenic peptide solution (10 mM H-Ala-Ala-Ala-pNA dissolved in dimethyl sulfoxide (DMSO); MW=387.82; Bachem, Switzerland) were added to 130 μl Na-acetate (20 mM, adjusted to pH 4.0 with acetic acid) in a microtiter plate and heated for 5 minutes at 40° C. 10 μL of appropriately diluted enzyme was added and the absorption was measured in a MTP reader (Versa max, Molecular Devices, Denmark) at 405 nm. One katal of proteolytic activity was defined as the amount of enzyme required to release 1 mole of p-nitroaniline per second.
The chromogenic peptide H-Ala-Ala-Ala-pNA (MW=387.82; Bachem, Switzerland) was used to determine the activity of proline tolerant tripeptidyl peptidase in the samples produced as described above. The assay was conducted as follows, 10 μL of the chromogenic peptide solution (10 mM dissolved in dimethyl sulfoxide; DMSO) were added to 130 μl Na-acetate (20 mM, adjusted to pH 4.0 with acetic acid) in a microtiter plate and heated for 5 minutes at 40° C. 10 μL of appropriately diluted enzyme was added and the absorption was measured in an MTP reader (Versa max, Molecular Devices, Denmark) at 405 nm. One katal of proteolytic activity was defined as the amount of enzyme required to release 1 mole of p-nitroaniline per second.
The proline tolerant tripeptidyl peptidase assay described with H-Ala-Ala-Ala-pNA substrate above with modification of using the buffers 20 mM Na-glycine (pH 2.0, 2.5, 3.0, 3.5 and 4.0) or 20 mM Na-acetate buffer (pH 4.0, 4.5 and 5.5) was used to determine the pH profile of proline tolerant tripeptidyl peptidase TRI083 (FIG. 2) and TRI045 (FIG. 24)..
The proline tolerant tripeptidyl peptidase assay described above was used at temperatures 25, 50, 55, 60, 65, 70, 75, 80 and 85° C.
For proline tolerant tripeptidyl peptidase the chromogenic peptide H-Ala-Ala-Ala-pNA was used. The assay was conducted as follows, 27.5 μL of appropriately diluted enzyme was added to 200 μl McIlvaine buffer (20 mM, pH 4.0). After incubation at 50° C. for 5 min, 12.5 μL of the chromogenic peptide solution (5 mg/mL dissolved in dimethyl sulfoxide (DMSO); Sigma-Aldrich, Denmark) were added to the reaction mixture. The reaction was terminated by adding 50 μL of 0.5 M trichloroacetic acid (TCA; Sigma-Aldrich, Denmark). After centrifugation (15,000×g, 5 min), 240 μL of the solution were transferred to a microtiter plate (MTP; Kisker-biotech, Germany) and the absorption was measured in an MTP reader (Molecular Devices, Denmark) at 405 nm. One katal of proteolytic activity was defined as the amount of enzyme required to release 1 mol of p-nitroaniline per second.

Molecule | Ki [1] | Degree of hydrolysis of 20% (w/w) WPI ([2]; TRI083 2,188 nkat/mL stock solution) | Degree of hydrolysis of 20% (w/w) WPI ([2]; TRI083 4,375 nkat/mL stock solution) | Degree of hydrolysis of 20% (w/w) WPI ([2]; TRI083 8,375 nkat/mL stock solution) | increase of SE (sodium caseinate) | activity at 70° C. and higher temperatures (H-Ala-Ala-Ala-pNA) | Optimum pH (H-Ala-Ala-Ala-pNA; H-Ala-Ala-Ala-pNA, 20 mM Na-glycine pH 2.0-4.0 or Na-acetate pH 4.0-5.5) | optimum temperature (H-Ala-Ala-Ala-pNA; tested at 25-85° C.)
C[C@H](N)C(=O)N[C@@H](C)C(=O)N[C@@H](C)C(=O)O [H-Ala-Ala-Ala-OH] | 0.34 mM |  |  |  |  |  |  | 
C[C@H](N)C(=O)N[C@@H](C)C(=O)O [H-Ala-Ala-OH] (H-Ala-Ala-OH) | 40 mM |  |  |  |  |  |  | 
TRI083: proline tolerant tripeptidyl peptidase (SEQ ID No. 1, SEQ ID No. 2 or SEQ ID No. 29), expressed in Trichoderma reesei (protein) QEPSSCKGTLVFEGETFNVFQPDCLRTEYSVDGYTPSVKSGSRIGFGSFLNESASFADQALFEKHFNIPSQNFSVVLINGGTDLPQPPSDANDGEANLDAQTILTIAHPLPITEFITAGSPPYFPDPVEPAGTPNENEPYLQYYEFLLSKSNAEIPQVITNSYGDEEQTVPRSYAVRVCNLIGLLGLRGISVLHSSGDEGVGASCVATNSTTPQFNPIFPATCPYVTSVGGTVSFNPEVAWAGSSGGFSYYFSRPWYQQEAVGTYLEKYVSAETKKYYGPYVDFSGRGFPDVAAHSVSPDYPVFQGGELTPSGGTSAASPVVAAIVALLNDARLREGKPTLGFLNPLIYLHASKGFTDITSGQSEGCNGNNTQTGSPLPGAGFIAGAHWNATKGWDPTTGFGVPNLKKLLALVRF |  | 0.5% | −0.9% | 1.4% | 18 mM | no activity | 4.0 | 50 °C
